Data from the Immune Epitope Database (IEDB).
pKd: −log10 of the molar value.

Columns and labels:
Experiment in all cases: IEDB peptide-MHC binding, purified MHC/direct/fluorescence; filed as Kd, often an IC50 or EC50 that approximates it; ≥ and ≤ were set here for values at or beyond the usual limits of such assays
HLA-B*73:01 = conditions: source organism: Yersinia enterocolitica
HLA-B*48:01 = conditions: source organism: Yersinia enterocolitica
HLA-B*27:05 = conditions: source organism: Yersinia enterocolitica
HLA-A*02:03 = conditions: source organism: Cryptosporidium parvum Iowa II
HLA-B*27:03 = conditions: source organism: Cryptosporidium parvum Iowa II
HLA-B*46:01 = conditions: source organism: Cryptosporidium parvum Iowa II
HLA-A*68:02 = conditions: source organism: Cryptosporidium parvum Iowa II
HLA-A*02:12 = conditions: source organism: Cryptosporidium parvum Iowa II
HLA-A*69:01 = conditions: source organism: Cryptosporidium parvum Iowa II
HLA-A*26:01 = conditions: source organism: Cryptosporidium parvum Iowa II
HLA-B*57:01 = conditions: source organism: Cryptosporidium parvum Iowa II
HLA-A*03:01 = conditions: source organism: Cryptosporidium parvum Iowa II
HLA-A*24:03 = conditions: source organism: Cryptosporidium parvum Iowa II
HLA-B*18:01 = conditions: source organism: Cryptosporidium parvum Iowa II
HLA-B*51:01 = conditions: source organism: Cryptosporidium parvum Iowa II
HLA-B*39:01 = conditions: source organism: Cryptosporidium parvum Iowa II
HLA-A*02:16 = conditions: source organism: Cryptosporidium parvum Iowa II
HLA-A*02:19 = conditions: source organism: Cryptosporidium parvum Iowa II
HLA-B*15:01 = conditions: source organism: Cryptosporidium parvum Iowa II
HLA-B*15:17 = conditions: source organism: Cryptosporidium parvum Iowa II
HLA-A*02:11 = conditions: source organism: Cryptosporidium parvum Iowa II
HLA-C*14:02 = conditions: source organism: Human immunodeficiency virus 1
HLA-C*15:02 = conditions: source organism: Human immunodeficiency virus 1
HLA-C*06:02 = conditions: source organism: Human immunodeficiency virus 1

## YRLVSAVEK
HLA-B*73:01
  pKd: ≤ 4.70
HLA-B*48:01
  pKd: ≤ 4.70
HLA-B*27:05
  pKd: 7.52

## ILTRLALFF
HLA-A*02:03
  pKd: ≤ 4.70
HLA-B*27:03
  pKd: ≤ 4.70
HLA-B*46:01
  pKd: ≤ 4.70
HLA-A*68:02
  pKd: ≤ 4.70
HLA-A*02:12
  pKd: ≤ 4.70
HLA-A*69:01
  pKd: ≤ 4.70
HLA-A*26:01
  pKd: ≤ 4.70
HLA-B*57:01
  pKd: ≤ 4.70
HLA-A*03:01
  pKd: ≤ 4.70
HLA-A*24:03
  pKd: ≤ 4.70
HLA-B*18:01
  pKd: ≤ 4.70
HLA-B*51:01
  pKd: ≤ 4.70
HLA-B*39:01
  pKd: ≤ 4.70
HLA-A*02:16
  pKd: ≤ 4.70
HLA-A*02:19
  pKd: ≤ 4.70
HLA-B*15:01
  pKd: ≤ 4.70
HLA-B*15:17
  pKd: ≤ 4.70
HLA-A*02:11
  pKd: ≤ 4.70

## RMYSPVSIL
HLA-C*14:02
  pKd: 6.15
HLA-C*15:02
  pKd: 6.16
HLA-C*06:02
  pKd: 5.51
